± gives the uncertainty stated by the source.
Assay: protein stability index of a GFP-peptide fusion (yeast GPS) (PSI 1-4); higher = more stable; sorted into four equal gates, so the index is relative within each strain
Procedure, shortened: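 Plasmids in a pooled yeast library fused tiled 17-residue yeast protein peptides downstream of GFP and also expressed Cherry. Mid-log cultures grown without leucine were sorted into four equal gates by GFP/Cherry fluorescence ratio. Each gate's plasmids were PCR-amplified and Illumina-sequenced, and reads were matched to strains by barcodes. The protein stability index is derived by multiplying each gate's read frequency by its gate number and summing the results.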

Sequence	protein stability index (doa10∆)	protein stability index (pdr5∆)	protein stability index (san1∆)	protein stability index (ubr1∆)
LEYNVALNDVYLDADVA [YML031W/NDC1]	3.32 ± 0.13	3.33 ± 0.13	3.05 ± 0.12	–
KGVYLILSEILCQINKC [YML103C/NUP188]	1.86 ± 0.055	1.56 ± 0.047	2.23 ± 0.075	1.88 ± 0.032
TVMFFYHNKHMMCDFGT [DIB1]	2.58 ± 0.049	2.51 ± 0.046	2.6 ± 0.046	2.54 ± 0.032
PDPNFENSIGYNNRKCW [PRP8]	3.02 ± 0.098	2.97 ± 0.1	2.98 ± 0.21	3.11 ± 0.12
ESLKKSPIFEVLSDDAK [ARP9]	3.01 ± 0.072	3.15 ± 0.079	3.06 ± 0.073	3.32 ± 0.058
GNASLKYIALQVIVDIF [YCG1]	1.2 ± 0.069	1.36 ± 0.076	1.19 ± 0.12	1.54 ± 0.15
MFSPLVDSGSNDAMAGG [RPO21]	3.3 ± 0.16	–	3.37 ± 0.26	–
TKPAIRRLARRGGVKRI [HHF1]	3.04 ± 0.13	3.12 ± 0.16	3 ± 0.16	3.45 ± 0.1
RLTMGNVFTPEISSQIE [RRI2]	2.7 ± 0.11	3.06 ± 0.079	2.95 ± 0.1	2.92 ± 0.09
TELVDGRENFVYANNPE [SIR3]	3.15 ± 0.1	3.33 ± 0.11	3.05 ± 0.13	2.95 ± 0.083
NGGEDTSVENEGPVANL [REC8]	3.37 ± 0.089	3.45 ± 0.094	3.06 ± 0.11	3.16 ± 0.058
TKVNNQLIKVAVHNGDR [RPL9B]	1.92 ± 0.074	1.52 ± 0.06	1.78 ± 0.086	2.4 ± 0.029
AILQKSLKNVTEKNREI [YIL149C/MLP2]	3.01 ± 0.051	2.79 ± 0.064	3.05 ± 0.032	2.96 ± 0.036
QQLDSFNQFVDYTLQDI [RPB2]	2.48 ± 0.094	2.64 ± 0.1	2.75 ± 0.052	2.43 ± 0.086
PSFMLKHHQLFYMLNAG [RPN1]	1.33 ± 0.099	1.53 ± 0.11	1.18 ± 0.19	1.12 ± 0.086
LSKVFSDVLFEFTKINT [YJL039C/NUP192]	2.87 ± 0.11	2.5 ± 0.068	2.09 ± 0.13	2.94 ± 0.051
NQNSSTGAGAFGTGQST [YJL041W/NSP1]	2.33 ± 0.058	1.99 ± 0.062	2.31 ± 0.11	2.6 ± 0.048
PYDKKKRVVVPQALRVL [RPL16A]	2.32 ± 0.14	–	–	1.35 ± 0.14
GIKYHATPPLKRFKDME [SMC1]	3.1 ± 0.1	3.25 ± 0.075	2.95 ± 0.07	3.25 ± 0.076
TLLSPKDNGMLIIDGQI [RPO21]	2.59 ± 0.076	2.29 ± 0.078	2.81 ± 0.074	1.78 ± 0.058
TNILISPLNTTTKILGD [YML103C/NUP188]	2.15 ± 0.058	2.42 ± 0.05	2.04 ± 0.086	1.51 ± 0.033
GRLNTLVISLAATNETF [IRR1]	1.64 ± 0.088	1.38 ± 0.065	1.1 ± 0.23	1.17 ± 0.06
LFDAAFYMKKDAVEGVS [RPO31]	2.75 ± 0.24	2.96 ± 0.14	3.31 ± 0.076	2.65 ± 0.11
QDRHVIFLAERRILPKP [RPS7A]	2.53 ± 0.23	2.93 ± 0.12	2.86 ± 0.27	2.73 ± 0.088
VKSFKPHLLKQGLAMVE [RRP42]	2.01 ± 0.13	2.35 ± 0.1	–	2.29 ± 0.2
DLKSKADKLADMANEII [RRP6]	3.38 ± 0.15	3.17 ± 0.12	3.19 ± 0.082	3.16 ± 0.085
MAATATDKIGRSVPAPG [FAS2]	2.82 ± 0.081	3 ± 0.076	3.04 ± 0.073	3.01 ± 0.053

Sequence	protein stability index (doa10∆)	protein stability index (pdr5∆)	protein stability index (san1∆)	protein stability index (ubr1∆)
IMNLITNEPCGAQFSRS [RPN4]	–	3.1 ± 0.3	–	2.96 ± 0.17
PRMIELMEFLCVVSTDS [ECM29]	2.04 ± 0.064	1.66 ± 0.066	1.64 ± 0.1	1.4 ± 0.054
NGMFCQVPSSLIVRAKN [RRP4]	2.07 ± 0.064	2.5 ± 0.12	2.31 ± 0.092	2.27 ± 0.082
LNDHIDDFEVNVASLVR [GRR1]	3.29 ± 0.087	3.26 ± 0.13	2.31 ± 0.25	3.08 ± 0.087
EKIKSKKINRRNETSVD [YCG1]	3.38 ± 0.094	3.09 ± 0.085	3.19 ± 0.08	3.33 ± 0.069
KTADVKRQYVKQFLTKD [RPL20A]	2.94 ± 0.087	2.92 ± 0.055	2.2 ± 0.07	2.6 ± 0.048
FKSVLPIVLLNTLRKCY [UBP6]	1.26 ± 0.11	1.23 ± 0.071	1.12 ± 0.16	1.18 ± 0.12
SKDVQQIDYKLESFQAV [RPS7A]	2.89 ± 0.053	3.06 ± 0.059	3.08 ± 0.054	3.07 ± 0.038
KTIEVTAEINCFMHLLV [RPN3]	–	1.77 ± 0.26	1.78 ± 0.2	1.67 ± 0.19
ARDIISHNFQNAIFQME [PCI8]	2.79 ± 0.063	2.94 ± 0.069	2.75 ± 0.046	2.92 ± 0.05
TRDDLLTILMRSIMKNR [RRI2]	2.36 ± 0.082	2.61 ± 0.087	2.22 ± 0.29	2.75 ± 0.067
SQDATKVDATPEESKPI [YLR335W/NUP2]	2.87 ± 0.12	3.17 ± 0.089	2.81 ± 0.08	3.18 ± 0.06
LKMQQQQQQQQQQQQQQ [GAL11]	2.69 ± 0.084	2.89 ± 0.073	2.62 ± 0.073	2.64 ± 0.067
KTDPAGYYVGYKATATG [SCL1]	2.98 ± 0.08	3.24 ± 0.065	3.21 ± 0.065	3.25 ± 0.1
PDLQFIVISLKNTMFEK [SMC1]	2.83 ± 0.082	2.68 ± 0.071	3.01 ± 0.05	2.77 ± 0.045
TCSCCKKTVAGGAYTVS [RPL43A]	1.65 ± 0.064	2.1 ± 0.11	1.76 ± 0.086	2.15 ± 0.066
RADIVRNIILEARFDVL [ISW2]	2.66 ± 0.088	2.25 ± 0.071	2.09 ± 0.11	2.51 ± 0.073
ATDISGELRDYIEDFLL [YJR042W/NUP85]	3.31 ± 0.1	3.31 ± 0.081	3.22 ± 0.056	3.3 ± 0.041
LQPIFKGEEAKLDSKKT [SSN3]	3.52 ± 0.2	3.11 ± 0.23	3.54 ± 0.17	–
ETISAIEHPMTSAIEVL [RPN1]	1.49 ± 0.048	1.72 ± 0.042	1.76 ± 0.071	1.8 ± 0.044
QGPIVADKNCAKLHRIS [PUP1]	3.41 ± 0.15	2.94 ± 0.088	2.79 ± 0.1	2.64 ± 0.072
KYLLTQRVFKPVDITMM [PRP8]	2.98 ± 0.081	2.99 ± 0.11	3.02 ± 0.079	2.31 ± 0.1
ERLAKVNEMNDQLAQEL [NNF1]	3 ± 0.22	3.42 ± 0.17	3.28 ± 0.12	2.85 ± 0.18
TGKYGVRYGSSLRRQVK [RPL43A]	3 ± 0.079	3.23 ± 0.066	3.42 ± 0.057	3.06 ± 0.046
YFYDLDVLKDGENNINF [BRN1]	3.57 ± 0.22	3.4 ± 0.15	3.54 ± 0.079	3.29 ± 0.11
KAINQELEDVAVKKLYA [YCS4]	3.26 ± 0.17	3.23 ± 0.13	2.72 ± 0.07	2.94 ± 0.08

Reference: the supplement of paper PMC9732359
